This note sets out measurements from EP4790071A2 (Akeso Biopharma, Inc., dated 2026).

The experiment deals with T1, human NT5E-Biotin (for NT5E, GenbankID: NP_002517.1, position: 1-552) (human, UniProt P21589 27-552, biotin label, site not stated).
T1 construct: range 1-552; Positions 1-552 as printed include the signal peptide; No cleavage site is stated; also called HNT5E-Biotin; antigen human NT5E-Biotin
T1 sequence (looked up): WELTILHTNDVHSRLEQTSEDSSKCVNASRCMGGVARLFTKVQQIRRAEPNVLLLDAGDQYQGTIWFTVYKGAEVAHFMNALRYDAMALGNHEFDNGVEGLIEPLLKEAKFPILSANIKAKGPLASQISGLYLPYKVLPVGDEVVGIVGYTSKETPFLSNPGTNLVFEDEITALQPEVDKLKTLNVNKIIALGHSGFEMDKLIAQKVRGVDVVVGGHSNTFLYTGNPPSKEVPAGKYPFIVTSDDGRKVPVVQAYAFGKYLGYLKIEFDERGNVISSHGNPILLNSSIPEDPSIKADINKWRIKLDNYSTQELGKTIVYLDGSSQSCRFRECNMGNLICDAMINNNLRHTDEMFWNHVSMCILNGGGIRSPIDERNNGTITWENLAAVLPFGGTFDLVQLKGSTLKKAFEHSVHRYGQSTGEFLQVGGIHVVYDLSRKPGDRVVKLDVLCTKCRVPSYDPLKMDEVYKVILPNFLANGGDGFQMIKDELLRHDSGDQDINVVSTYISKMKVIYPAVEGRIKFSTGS
As to the kind of experiment: ELISA, NT5E-Biotin on streptavidin plate.

B1: murine anti-CD73 monoclonal antibody 19F3 (antibody, V domains shown)
VH: EVQLQQSGPELVKPGASMRMSCKASGYSFTGYTMNWVKQSHGKNLEWIGLINPYNAGTSYNQKFKGKATLTVDKSSSTAYMELLSLTSEDSAVYYCARSEYRYGGDYFDYWGQGTTLTVSS
VL: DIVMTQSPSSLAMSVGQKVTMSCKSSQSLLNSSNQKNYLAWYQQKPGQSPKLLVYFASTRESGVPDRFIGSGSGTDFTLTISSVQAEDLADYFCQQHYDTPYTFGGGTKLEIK
notes: also called murine antibody 19F3
The molecule B1 gave a half-maximal effective concentration (EC50) of 0.018 nM.
